Experimental data taken from article PMC5574023.

Molecular target: platelet receptor GPIIbIIIa (αIIbβ3) on human platelets, P08514;P05106
Assay: platelet adhesion to immobilized protein (phosphatase assay)
Conditions: read off a plot

Substance | response (Absorbance (405 nm)) (parent: est. 0.48) | response (Absorbance (405 nm)) (parent: est. 0.88) | response (Absorbance (405 nm)) (TRAP-activated gel-filtered platelets, 2 × 10^7 per well, 10 μg protein per well, 37°C, 45 min, static, parent: est. 0.88) | response (Absorbance (405 nm)) (non-activated gel-filtered platelets, 2 × 10^7 per well, 10 μg protein per well, 37°C, 45 min, static, parent: est. 0.48)
recombinant PadA-F2 region fragment (from UniProt A8AZP4) G486A; D487A | 0.27 | 0.87 |  | 
recombinant PadA-F2 region fragment (from UniProt A8AZP4) N214A; G215A; R216A | 0.28 | 0.72 |  | 
recombinant PadA-F2 region fragment (from UniProt A8AZP4) N214A; G215A; R216A; R416A; G417A; T418A; G486A; D487A |  |  | 0.2 | 0.49
recombinant PadA-F2 region fragment (from UniProt A8AZP4) R416A; G417A; T418A | 0.21 | 0.8 |  | 
recombinant PadA-F2 region fragment (from UniProt A8AZP4) R416A; G417A; T418A; G486A; D487A | 0.71 | 0.44 |  | 
